Earlier results in publication PMC2996873.
pKd: −log10 of the molar value.

Target: RANTES (Homo sapiens) (UniProt P13501)
UniProt P13501, sequence (P13501 27-91): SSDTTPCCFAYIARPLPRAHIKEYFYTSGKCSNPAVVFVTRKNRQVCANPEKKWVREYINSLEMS

For CCR1 (from UniProt P32246), the pKd is given as 6.34.
